The target of test [1] is T1, biotinylated human complement component C1q (human, UniProt P02745 23-245; P02746 28-253; P02747 29-245, biotinylated, site not stated).
T1 construct: also called biotinylated-C1q
In words: ELISA, fusion protein coated, biotinylated human C1q at 1000 ng/mL. Here is the method:
The binding of insulin-Fc fusion proteins to complement component C1q at pH 7.4 was conducted using an ELISA assay as follows using human complement component C1q. Insulin-Fc fusion proteins were diluted to 10 µg/mL in sodium bicarbonate buffer at pH 9.6 and coated on Maxisorp (Nunc) microtiter plates overnight at 4° C., after which the microplate strips were washed 5 times with PBST (PBS/0.05% Tween-20) buffer and blocked with Superblock blocking reagent (ThermoFisher). […] The plate absorbance was read in an ELISA plate reader at 450 nm (OD450), and the OD450 values (proportional to the binding of complement component C1q to insulin-Fc protein) were plotted against log concentrations of complement component C1q added to each well to generate binding curves using GraphPad Prism software. […] In order to further compare differences across multiple insulin-Fc fusion proteins run at different times, the human C1q assay OD450 Ratio was calculated as the OD450 of a test insulin-Fc fusion protein compound obtained at a biotinylated-C1q concentration of 1000 ng/mL, divided by the OD450 of a reference insulin-Fc fusion protein of SEQ ID NO: 76 obtained at a biotinylated-C1q concentration of 1000 ng/mL.

Test [2] has as its target T2, human insulin receptor (IR) on human IM-9 cells (human, UniProt P06213 28-1382).
T2 construct: whole, on cells; also called human IR
In words: competition with biotinylated RHI on IM-9 cells, flow cytometry, 4 C. Here is the method:
40 µL of an IM-9 cell suspension (8×10⁶ cells/mL) was then added to each well by multichannel pipette, mixed again gently and incubated on ice for 30 min to allow competitive binding on the IR on IM-9 cells. Cells were then washed twice with 275µL of ice-cold FACS wash buffer (HBSS/2mM EDTA/0.1% Na-azide + 0.5% horse serum) by centrifuging the V-bottom plate at 3000 rpm for 3 min and aspirating the supernatant. Cells were then resuspended in 40µL of FACS staining medium containing 1:100 diluted Streptavidin-PE (Life Technologies) for 20 min on ice. Cells were then washed once with 275 µL of ice-cold FACS buffer and finally fixed with 3% paraformaldehyde for 10 min at room temp. Cells were then washed once with 275 µL of ice-cold FACS buffer and resuspended in 250µl of FACS buffer for analysis.
Next, the insulin-Fc fusion protein of SEQ ID NO: 76 was evaluated for the potential for in vivo bioactivity.

Test [3] deals with T3, biotinylated human FcRn (human, UniProt P55899 24-297; P61769 21-119, limits assumed, biotinylated, site not stated).
T3 construct: Bought reagent (Immunitrack); composition not described; also called human FcRn receptor
The test can be described thus: ELISA pH 5.5, fusion protein coated, biotinylated human FcRn titrated. On the procedure: Insulin-Fc fusion proteins comprising Fc fragments were diluted to 10 µg/mL in sodium bicarbonate pH 9.6 buffer and coated in duplicate on Maxisorb ELISA plate strips for 1-2 hours at RT. The strips were then washed 5 times with PBST (PBS/0.1% Tween-20) buffer and blocked with Superblock blocking reagent (ThermoFisher). Strips for FcRn binding were then washed again 3 times with pH 5.5 MES/NaCl/Tween (50 mM MES/150mM NaCl/0.1% Tween-20) buffer before addition of the FcRn reagent (biotinylated human FcRn; Immunitrack). Serial dilutions (1:3X dilutions) of biotinylated FcRn reagent were prepared in pH 5.5 MES/NaCl/Tween/5%Superblock buffer at concentrations from 6000 ng/mL to 8.23 ng/mL and loaded at 100 µL/well using a multichannel pipettor onto the strips coated with the insulin-Fc fusion protein compounds. The assay plate was then incubated for 1.5 hours at room temperature. FcRn binding strips were washed 4 times with pH 5.5 MES/NaCl/Tween buffer and then loaded with 100 µl/well streptavidin-HRP diluted 1:10000 in pH 5.5 MES/NaCl /5%Superblock buffer. After incubating for 45 minutes, strips were washed again 5 times with pH 5.5 MES/NaCl/Tween buffer. […] The plate was read in an ELISA plate reader at a wavelength of 450 nm. […] EC50 values for each binding curve were calculated to compare between different compounds.
In general terms: An ELISA detects its analyte on a solid surface through an enzyme-linked reagent.

The target in test [4] is T4, biotinylated recombinant human Fc(gamma)RI (human, UniProt P12314 16-288, biotinylated, site not stated).
T4 construct: Bought reagent; construct not described; also called rhFc(gamma)RI; Fc(gamma) receptor I
In words: ELISA, fusion protein coated, biotinylated rhFc(gamma)RI at 3000 ng/mL. On the procedure: The binding of insulin-Fc fusion proteins to the Fc(gamma)RI at pH 7.4 was conducted using an ELISA assay as follows using human Fc(gamma)RI (i.e., rhFc(gamma)RI). Insulin-Fc fusion proteins were diluted to 10 µg/mL in sodium bicarbonate buffer at pH 9.6 and coated on Maxisorp (Nunc) microtiter plates overnight at 4° C., after which the microplate strips were washed 5 times with PBST (PBS/0.05% Tween-20) buffer and blocked with Superblock blocking reagent (ThermoFisher). […] The plate was read in an ELISA plate reader at 450 nm, and the OD450 values (proportional to the binding of rhFc(gamma)RI to insulin-Fc protein) were plotted against log concentrations of rhFc(gamma)RI added to each well to generate binding curves using GraphPad Prism software. […] In order to compare differences across multiple insulin-Fc fusion proteins run at different times, the human Fc(gamma)RI assay OD450 Ratio was calculated as the OD450 value of a test insulin-Fc fusion protein compound obtained at a biotinylated-Fc(gamma)RI concentration of 3000 ng/mL, divided by the OD450 value of a reference insulin-Fc fusion protein of SEQ ID NO: 76 obtained at a biotinylated-Fc(gamma)RI concentration of 3000 ng/mL.

The record followed here is patent publication US20230250148A1 (published 2023).

B1: insulin-Fc fusion protein of SEQ ID NO: 75 (Fc fusion)
chain: FVNQHLCGSHLVEALELVCGERGFHYGGGGGGSGGGGGIVEQCCTSTCSLDQLENYCGGGGGQGGGGQGGGGQGGGGGECPPCPAPPVAGPSVFLFPPKPKDTLMISRTPEVTCVVVDVSHEDPEVQFNWYVDGVEVHNAKTKPREEQFNSTFRVVSVLTVVHQDWLNGKEYKCKVSNKGLPAPIEKTISKTKGQPREPQVYTLPPSREEMTKNQVSLTCLVKGFYPSDIAVEWESNGQPENNYKTTPPMLDSDGSFFLYSKLTVDKSRWQQGNVFSCSVMHEALHNHYTQKSLSLSPG
In the case of B1, the “OD450 Ratio (reference SEQ ID NO: 76)” value in test [1] amounted to 0.309; in test [4], 0.045. The IC50 (in general, the midpoint of a concentration-inhibition curve) in test [2] turned out to be 1730 nM. The EC50 (usually the concentration needed to bring the measured effect to its halfway point) in test [3] turned out to be 0.462 µg/mL.
